Test results as given in the supplement of paper PMC9170038.

Tested on: MS2 coat protein
Assay: apparent KD of MS2 coat protein; higher = weaker reporter binding
Settings: Eterna round: R107
Method in brief: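 Apparent KD per design is the median of normalised cluster binding-curve fits. Designed RNA switches transcribed on-chip from Illumina sequencing clusters were titrated with SNAP-549-labelled MS2 coat protein in twofold steps from 0.7 or 1.5 nM to 3 µM, with 0.8–1.5 h down to 10–20 min per step. Buffer: 100 mM Tris-HCl pH 7.5, 80 mM KCl, 4 mM MgCl2, without or with constant ligand.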

[1] = input ligand: theophylline 20 uM
[2] = input ligand: tryptophan 2.4 mM
[3] = input ligand: theophylline 2 mM

| Sequence | apparent KD of MS2 coat protein (input ligand: arginine 13.2 mM) | apparent KD of MS2 coat protein [1] | apparent KD of MS2 coat protein [2] | apparent KD of MS2 coat protein [3] | apparent KD of MS2 coat protein (input ligand: none) |
| --- | --- | --- | --- | --- | --- |
| UCCACACAUGAGGAUCACCCAUGUUGAGAUACCAGUAAACCAAAAUACCCUUGGCAGCUCCUACGCUCUUACAGCGGGAAUAUCC [theeternabot_sameState_MS2_Theo_A_46] | 14.3 nM | 19.5 nM | 14.9 nM | – | – |
| GGUUGGUCGCAGGAUACCAGUCCACCCGUGAUACUGCUAAACAUGAGGAUCACCCAUGUCGACCCUUGGCAGCCUGUCCAUGCGU [theeternabot_exclusion_MS2_Theo_B_45] | 18.8 nM | 27.3 nM | 17.1 nM | – | – |
| AGAGCAUUGACGGCCGCCACUCGUGUCACAUGAGGAUCACCCAUGUGAUGGGUGAUAGCCCGGUUGAGGACCGGGUCAAUGCUCA [Omei Tryp SS B v7] | 13.1 nM | 16.8 nM | – | 16.2 nM | – |
| GCCAGACAUGAGGAUCACCCAUGUAGCGAUACCAGCUCUGUUGUGAGCCCUUGGCAGCGCACUGGCAUCGUAGGUGAUCCAAUAA [(T)''-(Ms2)-(Theo)-(T)'-(M)'_Design1] | 50.4 nM | 114 nM | 45.9 nM | – | – |
| UAUAUAGAUGGAAGUCAUAUAGAUGCAGAAGGAGCGUAGGAAACUACAGGUAGGUCGCUGAGGUACAUGAGGAUCACCCAUGUAG [SSArg A #18 Slice of Pi] | 20.8 nM | 34.1 nM | 24.2 nM | 25.3 nM | 27.3 nM |
| UGUAUGUGAUUUGAUACCAGACCAGCUGGUGGUACUUGAGGAUCACCCAGGUAGGUUUGGGUCCCUUGGCAGCAAAUCGCAUACU [SS Theo B #24 Ms12] | 293 nM | 731 nM | 1310 nM | 408 nM | 512 nM |
| AGCACUGUGACGGCCGCCACUACAUAAUAGGGUGGUCAGGUUCAUAUACAUGAGGAUCACCCAUGUAGGACCGGGUCUCAGUGCA [Omei Trp Exc B A v6] | 8.68 nM | 12.7 nM | 9.03 nM | 12.2 nM | 10.6 nM |
| AGCCAUGGAAACAUGGCGGCGGCAUGAGCGCGAGGACCGGUACGGCCGCCACUCGGGCGACAUGAGGAUCACCCAUGUUCCUCAU [ETA NP+V+V2 #22 Same Structure] | 145 nM | 312 nM | 422 nM | 451 nM | 289 nM |
| CUAAGAGCGGCGGCCGCCACUGGUAACCGAGAGGAGGAGCUUCUGAACAUGAGGAUCACCCAUGUCAGGACCGGGUCGUCUUAGA [Same State - Tryptophan B] | 15.5 nM | 18.5 nM | 16.6 nM | 14.9 nM | 13.8 nM |
| GGUCUCUGGAGCGAUACCAGCUUGAUCGUACUAGCCAGGUACAUGAGGAUCACCCAUGUAAGCCCUUGGCAGCGCUCCAGAGACC [#1 Exclusion - Theophylline B Attempt #9 (HarryS)] | 8.2 nM | 14.6 nM | 10.5 nM | 22.3 nM | 9.25 nM |
| AAAACACAUGAGGAUCACCCAUGUCGUGAUACCAGUCAACAUGAGGACCCUUGGCAGCAUAAAAUGGGUAACAUGAGGAUCACCC [AstrosEXyTheA#5] | 65.3 nM | 118 nM | 90.9 nM | – | – |
| UUGCCCAGUACGGCCGCCACUGUGUGCAGGGAACCCAGGUCCACAUGAGGAUCACCCAUGUACAGCAGGACCGGGUACUUGCAAU [Ininladia] | 8.14 nM | 11.9 nM | – | 10.6 nM | – |
| CGCAAGCAACAUGAGGAUCACCCAUGUGAAGGAGCGCCGAAUAAGGCAGGUAGGUCGCACAUGAAUAAAUCAUGUAAAAGCUUGC [MAT - Exclusion Arginine A - Mod of Eli - D22] | 33.7 nM | 52.9 nM | 58.3 nM | 160 nM | 62.7 nM |
| GUCCACAUGAGGAUCACCCAUGUAAGUGGGCGAGGACCGGUACGGCCGCCACUCGACAUGUUGACGAAAAGUCAGCAUGAGGACA [#SwitchBubble 3 #GuTurnoff #Tail] | 44.1 nM | 154 nM | 101 nM | 114 nM | 108 nM |
| UUAUUUAUAAUGGAUACCAGUCGUAUGGCCCGGAAUCCUGACAUGAGGAUCACCCAUGUCGACCCUUGGCAGCUGUUAUGGGUUU [XTheo B #22] | 13.7 nM | 16.3 nM | 14.9 nM | – | – |
| CUACAUUUGUAGAAACCGGUCAACAAUAAUCGAGGACCGGUACGGCCGCCACUCGUAUAAUUUAAUACAUGAGGAUCACCCAUGU [Tryptophan A 1] | 13.7 nM | 19.4 nM | – | 19.4 nM | – |
| GAUCGACAAAACGUCUAGGAAAACUAGACGCGAGGACCGGUACGGCCGCCACUCGUCCUCACAUGAGGAUCACCCAUGUACGAUC [#SwitchBubble 2 #CuTurnoff] | 30.3 nM | 43.2 nM | – | 46.3 nM | – |

| Sequence | apparent KD of MS2 coat protein (input ligand: arginine 13.2 mM) | apparent KD of MS2 coat protein [1] | apparent KD of MS2 coat protein [2] | apparent KD of MS2 coat protein [3] | apparent KD of MS2 coat protein (input ligand: none) |
| --- | --- | --- | --- | --- | --- |
| UCGUGUAUAUCGGAUACCAGUGAAAUCGAUACAUGAGGAUCACCCAUGUGAGUUGAUGUACACCCUUGGCAGCUGUAUAUAUCUA [snbullin] | 15 nM | 18.1 nM | 15.3 nM | – | – |
| AACAUGAGGAUCACCCAUGUCUGAACUGAAGGAGCGCUAAAUAAGGCAGGUAGGUCGCGGAAUUUUAUAUAUAUAUAUAUAUAGG [9.D] | 28.7 nM | 31.9 nM | 25 nM | 19.8 nM | 28 nM |
| ACAUGAGGAUCACCCAUGUCUGCCACUGAUACCAGCGGAAGCCCACGCCCUUGGCAGCAGAACAUGAGGAUCACCCAUGUAGGCU [Same State Theophylline A GF28] | 55.8 nM | 186 nM | 201 nM | – | – |
| GGAUAGGACACGGCCGCCACUAUCUAGGAUACUAGCAACAUUUGGGUACUUGAGGAUCACCCAAGUAGGACCGGGUGUCCUAUCG | 82.7 nM | 226 nM | 307 nM | 253 nM | 170 nM |
| AAUAACAUGAGGAUCACCCAUGUAAAAGAUACCAGAGUGAUGAUCCUCCCUUGGCAGCUUAAACGCUAUUGAUUACAAUAGCGAA [Mat - Same State Theophlline A - Mod of Eli - D2] | 29.8 nM | 114 nM | 28.6 nM | – | – |
| GGGUAUGAUCCGGAUACCAGCGAACAUGAGGAUCACCCAUGUGACCUAAGAUAGGCUAAACGCCCUUGGCAGCCGAGAUUGCGUU [Same State Theophylline B GF7] | 32.4 nM | 49.7 nM | 41 nM | – | – |
| AUUCAUAAUUGGGUAAAUGGAUAGAGUGAUACCAGUCAUAUACAUGACCCUUGGCAGCACAAGGACAUGAGGAUCACCCAUGUCA [Same State Theophylline A GF22] | 21.1 nM | 26.7 nM | 28.9 nM | – | – |
| GGUUACUCUACGGCCGCCACUGAACAUGAGGAUCACCCAUGUAAUGUUCAGUAGUCUUUAGACAACAGGACCGGGUAGUGUAACC [Tryptophan B 6] | 109 nM | 236 nM | – | 271 nM | – |
| UUUGCACAUGAGGAUCACCCAUGUACAGAUACCAGCCUCAUCUACGGCCCUUGGCAGCUGAGACAAUGGUGACGUGAUGGGCUUU [Iserraxeso] | 12.9 nM | 14.7 nM | 11.8 nM | – | – |
| CUCAUCCACGCGGCCGCCACUACUUGUAGGUGUGGGUGUGUUGUGUUACAUGAGGAUCACCCAUGUAGGACCGGGCGUGGAUGAG [Whale] | 53.9 nM | 85.6 nM | 213 nM | 83.8 nM | 62.7 nM |
| UCUUUCUUUGUAGAUACCAGCAUGUUAAGUUUCUUUUGACAUGAGGAUCACCCAUGUACAUGCCCUUGGCAGCUACAUUUUCUUU [SSThB NP+V+V2 Same Structure] | 15.6 nM | 16.3 nM | 15.4 nM | – | – |
| UGUAUGUGAUCUGAUACCAGUCCCUUGGCAGCAACAUGAGGAUCACCCAUGUAGAUACCAGACCCUUGGCAGCAGAUCGCAUACU [#DoubleAptamer 1] | 8.55 nM | 9.15 nM | 8.2 nM | – | – |
| AUAACAUGAGGAUCACCCAUGUAAGCUGAAGGAGCGCUGGAAACAGCAGGUAGGUCGCAGCGGCGACCUUCAUGGGUAAGGUCGC [(M1)-(M2)-(Arg1)-(Arg2)-(A)'-(M)'-(A)''_Design4] | 33.1 nM | 41.2 nM | 30.4 nM | 40.5 nM | 32.8 nM |
| GUCUGUGUCUGAAGGAGCGACAUGAGGAUCACCCAUGUCUCCCGUUAUGGGAGUUCCUUAGGUCAGGUAGGUCGCAGACACAGAC [#1 Exclusion - Arginine B Attempt #27 (Inspired by Omei)] | 110 nM | 164 nM | 107 nM | 187 nM | 123 nM |
| AACAUACAGUUUUAGGUGGAUAUAAGGCGGCGAGGACCGGUACGGCCGCCACUCGCGUACAUGAGGAUCACCCAUGUCUGAAGCU [Same State - Tryptophan A (Freestyle 7)] | 24.4 nM | 59.2 nM | – | 86.9 nM | – |
| UGUAUUGGAAACAGUACUAGUGAUCCGGUCCGAGGACCGGUACGGCCGCCACUCGAAAUUAAUAAACAUGAGGAUCACCCAUGUA [Ex Tryptophan A 11] | 15.7 nM | 19.7 nM | – | 20.2 nM | – |
